Assay [1] concerns the target full length human FGFR3b on BaF3 cells (BAF3/FGFR3b, ACL11991) (human, UniProt P22607 23-808). In words: cell-based or functional assay.
Assay [2] deals with T1, human FGFR3b expressed with a C-terminal myc-myc-hexahistidine tag (hFGFR3b.mmH) (human).
T1 construct: also called REGN3152; monomeric human FGFR3b
T1 chain: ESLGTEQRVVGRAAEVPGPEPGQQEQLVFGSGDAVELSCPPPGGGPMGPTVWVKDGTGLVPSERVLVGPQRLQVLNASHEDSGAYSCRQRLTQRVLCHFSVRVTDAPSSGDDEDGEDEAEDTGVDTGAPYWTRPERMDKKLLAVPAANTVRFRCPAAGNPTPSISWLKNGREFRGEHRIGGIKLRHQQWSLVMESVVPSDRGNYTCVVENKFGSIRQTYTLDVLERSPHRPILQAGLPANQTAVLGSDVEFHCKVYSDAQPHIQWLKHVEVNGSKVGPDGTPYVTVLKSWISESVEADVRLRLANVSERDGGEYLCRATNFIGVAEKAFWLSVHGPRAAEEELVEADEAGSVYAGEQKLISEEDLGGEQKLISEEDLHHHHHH
In words: SPR Biacore, mAb captured on anti-hFc, 25C. A general note: Surface plasmon resonance follows binding to a sensor surface in real time, without labels.

For assay [3], the target named is T2, human FGFR3c expressed with a C-terminal myc-myc-hexahistidine tag (hFGFR3c.mmH) (human, UniProt P22607 23-375).
T2 construct: also called REGN3155; monomeric human FGFR3c
In words: SPR Biacore, mAb captured on anti-hFc, 25C.

Assay [4] addresses T3, hFGFR3c-hFc (human, UniProt P22607 23-375).
T3 construct: range 23-375; Bought (R&D Systems); also called dimeric human FGFR3c; R&D Systems 766-FR-050; not shown: Fc portion of human IgG1, amino acids Pro100-Lys330
T3 sequence (looked up): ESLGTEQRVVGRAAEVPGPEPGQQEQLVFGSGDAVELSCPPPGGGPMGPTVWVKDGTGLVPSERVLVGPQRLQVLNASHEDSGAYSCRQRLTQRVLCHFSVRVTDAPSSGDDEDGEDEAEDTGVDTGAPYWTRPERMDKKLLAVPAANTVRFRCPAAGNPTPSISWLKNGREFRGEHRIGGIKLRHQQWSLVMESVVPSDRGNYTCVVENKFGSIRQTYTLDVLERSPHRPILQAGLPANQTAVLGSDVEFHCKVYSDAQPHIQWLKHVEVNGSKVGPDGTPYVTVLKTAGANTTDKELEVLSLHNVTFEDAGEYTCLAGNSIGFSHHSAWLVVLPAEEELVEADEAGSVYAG
The experiment in a line: competition ELISA: 7 nM hFGFR3c-hFc binding to plate-coated hFGF basic. The method, then:
(§1) The fixed concentration of hFGFR3b or hFGFR3c proteins was selected to be near the concentration that generated 50% of the maximal binding (EC₅₀ value) to plate-adhered hFGF acidic or hFGF basic protein. […] The plates were then developed using TMB substrate solution (BD Biosciences) according to the manufacturer's recommended procedure and absorbance at 450 nm was measured on a Victor X5 plate reader.
(§2) Binding data were analyzed using a sigmoidal (four-parameter logistic) dose-response model using GraphPad Prism software. […] Percent blocking of FGFR3 antibody at a given concentration was calculated based on the formula shown below.
(§3) The ability of anti-FGFR3 antibodies to block human FGFR3b binding to hFGF acidic protein or hFGFR3c binding to hFGF acidic or hFGF basic proteins was evaluated using a sandwich ELISA-based blocking assay.
(An ELISA detects its analyte on a solid surface through an enzyme-linked reagent.)

The target of assay [5] is T4, human FGFR3b expressed with a C-terminal murine Fc tag (hFGFR3b.mFc) (human).
T4 construct: called dimeric; also called REGN3153; dimeric human FGFR3b
T4 chain: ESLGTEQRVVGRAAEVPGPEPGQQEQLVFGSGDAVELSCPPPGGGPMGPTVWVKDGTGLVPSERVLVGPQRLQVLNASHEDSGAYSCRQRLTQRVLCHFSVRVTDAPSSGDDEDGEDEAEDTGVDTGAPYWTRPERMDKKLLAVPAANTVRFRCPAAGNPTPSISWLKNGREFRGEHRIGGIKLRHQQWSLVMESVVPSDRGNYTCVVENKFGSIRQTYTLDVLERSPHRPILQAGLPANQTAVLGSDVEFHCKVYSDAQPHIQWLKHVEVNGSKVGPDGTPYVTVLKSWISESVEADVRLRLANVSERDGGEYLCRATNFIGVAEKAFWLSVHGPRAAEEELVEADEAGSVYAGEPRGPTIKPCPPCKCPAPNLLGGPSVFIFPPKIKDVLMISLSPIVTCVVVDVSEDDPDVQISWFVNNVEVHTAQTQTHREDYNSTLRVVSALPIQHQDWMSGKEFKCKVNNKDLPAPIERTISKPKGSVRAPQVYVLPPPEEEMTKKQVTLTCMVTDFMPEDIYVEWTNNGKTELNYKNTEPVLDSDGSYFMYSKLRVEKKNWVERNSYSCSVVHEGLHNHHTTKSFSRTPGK
In words: competition ELISA: 4 nM hFGFR3b-mFc binding to plate-coated hFGF acidic.

Assay [6] has as its target T3, hFGFR3c-hFc. The experiment in a line: competition ELISA: 0.4 nM hFGFR3c-hFc binding to plate-coated hFGF acidic. The method, then:
as §1, §2, §3

Assay [7] concerns the target T5, cynomolgus FGFR3b expressed with a C-terminal myc-myc-hexahistidine tag (mfFGFR3b.mmH) (cynomolgus).
T5 construct: also called REGN3521; mf FGFR3b ecto (R357G)(E23-G377;R357G).mmH
T5 chain: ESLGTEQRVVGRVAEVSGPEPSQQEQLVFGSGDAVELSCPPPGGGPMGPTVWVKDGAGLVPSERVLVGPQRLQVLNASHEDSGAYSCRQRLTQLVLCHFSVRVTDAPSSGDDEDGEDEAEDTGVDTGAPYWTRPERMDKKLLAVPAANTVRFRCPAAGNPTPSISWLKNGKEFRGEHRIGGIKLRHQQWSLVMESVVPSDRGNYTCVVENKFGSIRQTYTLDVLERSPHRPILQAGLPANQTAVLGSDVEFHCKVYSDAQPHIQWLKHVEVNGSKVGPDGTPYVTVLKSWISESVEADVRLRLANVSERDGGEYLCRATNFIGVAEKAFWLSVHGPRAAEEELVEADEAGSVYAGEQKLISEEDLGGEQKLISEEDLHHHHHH
In words: SPR Biacore, mAb captured on anti-hFc, 25C.

In assay [8] the target is T6, murine FGFR3b expressed with a C-terminal myc-myc-hexahistidine tag (mFGFR3b.mmH) (murine).
T6 construct: also called REGN3215; monomeric murine FGFR3b
T6 chain: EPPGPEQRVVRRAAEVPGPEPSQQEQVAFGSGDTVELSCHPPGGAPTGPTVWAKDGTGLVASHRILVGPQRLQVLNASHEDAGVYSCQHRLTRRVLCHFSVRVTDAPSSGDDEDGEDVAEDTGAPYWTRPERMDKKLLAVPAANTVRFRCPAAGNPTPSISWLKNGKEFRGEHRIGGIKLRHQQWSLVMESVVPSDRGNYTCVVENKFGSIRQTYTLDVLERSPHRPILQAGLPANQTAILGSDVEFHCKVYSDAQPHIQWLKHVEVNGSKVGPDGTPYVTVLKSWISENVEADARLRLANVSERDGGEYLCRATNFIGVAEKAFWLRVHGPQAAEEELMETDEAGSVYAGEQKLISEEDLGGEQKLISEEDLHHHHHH
In words: SPR Biacore, mAb captured on anti-hFc, 25C.

Assay [9] has as its target T4, human FGFR3b expressed with a …. In words: SPR Biacore, mAb captured on anti-hFc, 25C.
Assay [10] concerns the target T6, murine FGFR3b expressed with a …. The experiment in a line: SPR Biacore, mAb captured on anti-hFc, 25C; row marked NB. How it is done:
The CM5 Biacore sensor surface was derivatized by amine coupling with a monoclonal mouse anti-human Fc monoclonal antibody (REGN2567). […] Antibody-reagent association was monitored for 5 minutes while dissociation in HBS-EP running buffer was monitored for 10 minutes. At the end of each cycle, the anti-FGFR3 antibody capture surface was regenerated using a 10 sec injection of 20 mM phosphoric acid. All binding kinetics experiments were performed at 25° C.
The specific SPR-Biacore sensorgrams were obtained by a double referencing procedure. The double referencing was performed by first subtracting the signal of each injection over a reference surface (anti-hFc) from the signal over the experimental surface (anti-hFc-captured anti-FGFR3 antibodies) thereby removing contributions from refractive index changes. In addition, running buffer injections were performed to allow subtraction of the signal changes resulting from the dissociation of captured antibodies from the coupled anti-hFc surface. Kinetic association (kₐ) and dissociation (kd) rate constants were determined by fitting the real-time sensorgrams to a 1:1 binding model using Scrubber v2.0c curve fitting software.

The source of these data is patent US20240158515A1 (Regeneron, published 2024).

B1: REGN6331 (antibody, human IgG1, kappa, V domains shown)
VH: EVQLVESGGGLVQPGGSLRLSCAASGFTFTSTGISWVRQAPGKGLEWVGRIYPTSGSTNYADSVKGRFTISADTSKNTAYLQMNSLRAEDTAVYYCARTYGIYDLYVDYTEYVMDYWGQGTLVTVSS
VL: DIQMTQSPSSLSASVGDRVTITCRASQDVDTSLAWYKQKPGKAPKLLIYSASFLYSGVPSRFSGSGSGTDFTLTISSLQPEDFATYYCQQSTGHPQTFGQGTKVEIKR
notes: hIgG1 comparator; also called COMP6331; anti-FGFR3-hIgG1 comparator
As usually defined, the Kd is the free concentration of one partner at which half of the binding sites on the other are occupied at equilibrium, for simple one-to-one binding. For orientation: t½ means the time needed for the level to fall by half in the phase considered. Lower therefore signals rapid decline. The IC50 is the concentration that gives 50% inhibition. Take B1: in assay [1], the “IC50 [M], BaF3 proliferation (CellTiter-Glo) with 1 nM FGF1 + 5 ug/ml heparin” value worked out at 5.79e-11 M and the “Max Blocking (%), BaF3 proliferation (CellTiter-Glo) with 1 nM FGF1 + 5 ug/ml heparin” value came to 97.6%. Also, in assay [2], the “90 nM hFGFR3b.mmH Bind (RU)” value was found to be 58.4 RU, binding was put at a Kd of 0.697 nM and the “t½” value stood at 18.8 min. Also, in assay [3], the “90 nM hFGFR3c.mmH Bind (RU)” value came out at 39.6 RU; the affinity, expressed as Kd, was 2.42 nM; the “t½” value is 8.77 min. Moreover, in assay [4], the IC50 was determined as 8.9 nM. In [5], the “% Blocking at 200 nM mAb” value was found to be 99% and the concentration for half-maximal inhibition (IC50) is 1.5 nM. Further, the IC50 in assay [6] amounted to 0.1 nM.

B2: H4H30117P2 (antibody, human IgG4 S228P, kappa, V domains shown)
VH: QVQLVQSGAEVKKPGSSVKVSCKASGDTFSNYVIGWVRQAPGQGLEWMGGIIPIFGTTNYAQQFQGRVTITTDESTSTAYMELSSLRSEDTAVYYCARDGNYGDYFDYWGQGTLVTVSS
VL: not shown
What is called koff is the first-order rate constant of dissociation. A lower koff goes with a long-lived complex. A word on the kon: it is a measure of how fast the partners come together. Read a high kon as fast association. For B2, in assay [2], the “90 nM hFGFR3b.mmH Bind (RU)” value is 178 RU, the dissociation rate constant (koff) was 0.0063 s⁻¹, the kon was determined as 656000 M⁻¹ s⁻¹ and the “t½” value turned out to be 1.8 min. Further, in assay [7], the “90 nM mfFGFR3b.mmH Bind (RU)” value came out at 148 RU, the Kd came to 15.8 nM, the koff amounted to 0.0087 s⁻¹ and the on-rate constant (kon) came to 550000 M⁻¹ s⁻¹. For the same molecule, the “t½” value in [7] was determined as 1.3 min. Besides, the binding result in assay [8] was “no binding (tested: 90 nM)”. In assay [3], the “90 nM hFGFR3c.mmH Bind (RU)” value turned out to be 166 RU, the koff was 0.00732 s⁻¹, the kon turned out to be 595000 M⁻¹ s⁻¹ and the “t½” value was 1.6 min. Further, in assay [9], the “30 nM hFGFR3b.mFc Bind (RU)” value turned out to be 337 RU, the koff worked out at 0.000133 s⁻¹, the kon is 787000 M⁻¹ s⁻¹ and the “t½” value is 87 min. The “90 nM mFGFR3b.mmH Bind (RU)” value in assay [10] was 0.9 RU.
